Assay results from patent US20240336656A1 (Bicycle, published 2024).
Starred links: 1 amine or outer side, 2 acyl side, 3 side chain; linkers in the order of their positions; H or OH if unused. Positions of bridges follow the written chain, without caps; N, C: chain ends. Non-standard residues stand in square brackets, D forms with d. Chains are numbered I, II in the order given. No end group written: not given here. PYA = 4-pentynoic acid on Lys NZ, clicked (triazole) to linker azide; TATA = O=C(CC[*:1])N1CN(C(=O)CC[*:2])CN(C(=O)CC[*:3])C1; 1Nal = N[C@@H](Cc1cccc2ccccc12)C(=O)O; Hyp = O=C(O)[C@@H]1C[C@@H](O)CN1; hArg = N=C(N)NCCCC[C@H](N)C(=O)O; tBuAla = CC(C)(C)C[C@H](N)C(=O)O; Nle = CCCC[C@H](N)C(=O)O

Assays:
[1] = target: T1, CD137 (TNFRSF9) on cells (human, UniProt Q07011 24-255); assay: cell-based or functional assay
T1 sequence (Q07011 24-255): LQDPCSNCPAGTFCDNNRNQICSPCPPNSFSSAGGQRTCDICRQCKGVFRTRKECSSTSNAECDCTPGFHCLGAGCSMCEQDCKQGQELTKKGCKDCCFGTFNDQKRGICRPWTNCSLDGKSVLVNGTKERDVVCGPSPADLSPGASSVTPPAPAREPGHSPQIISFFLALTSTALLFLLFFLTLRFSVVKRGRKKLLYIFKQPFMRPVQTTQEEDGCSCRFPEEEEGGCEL

[2] = target: T1, CD137 (TNFRSF9) on cells; assay: cell-based or functional assay; remark: listed apart in the source

EC50 (nM) of fold induction over background, CD137 reporter assay, coculture with CT26#7 (mouse) [1]: 0.14 nM
EC50 (nM) of fold induction over background, CD137 reporter assay, coculture with HT1376 (human) [1]: 0.52 nM
EC50 (nM) of fold induction over background, CD137 reporter assay, coculture with MC38#13 (mouse) [1]: 0.31 nM
EC50 (nM) of fold induction over background, CD137 reporter assay, coculture with MDA-MB-468 (human) [1]: 0.23 nM
EC50 (nM) of fold induction over background, CD137 reporter assay, coculture with NCI-H292 (human) [1]: 0.28 nM
EC50 (nM) of fold induction over background, CD137 reporter assay, coculture with NCI-H322 (human) [1]: 0.33 nM
EC50 (nM) of fold induction over background, CD137 reporter assay, coculture with T47D (human) [1]: 0.42 nM
EC50 of IFNγ secretion, human PBMC co-culture with 4T1-D02 (mouse) [2]: 0.04 nM
EC50 of IFNγ secretion, human PBMC co-culture with H322 (human) [2]: 0.85 nM
EC50 of IFNγ secretion, human PBMC co-culture with MC38 # 13 (mouse) [2]: 0.17 nM
EC50 of IFNγ secretion, human PBMC co-culture with T-47D (human) [2]: 0.08 nM
EC50 of IL-2 secretion, human PBMC co-culture with 4T1-D02 (mouse) [2]: 0.16 nM
EC50 of IL-2 secretion, human PBMC co-culture with H322 (human) [2]: 0.84 nM
EC50 of IL-2 secretion, human PBMC co-culture with HT1376 (human) [2]: 0.39 nM
EC50 of IL-2 secretion, human PBMC co-culture with MC38 # 13 (mouse) [2]: 0.25 nM
EC50 of IL-2 secretion, human PBMC co-culture with T-47D (human) [2]: 0.2 nM
B1: BCY11863 (peptide)
peptide 1: {N‑(acid-PEG3)‑N‑bis(PEG3-azide)}-CP[1Nal][dD]CM[hArg]DWSTP[Hyp]WC
peptide 2: Ac-C[tBuAla]PE[dK](PYA)PYCFADPY[Nle]CA
modifications: linker I:1-I:5-I:15, II:1-II:8-II:15 via TATA; also: heterotandem: one BCY8116 (chain 1) joined through N-(acid-PEG3)-N-bis(PEG3-azide) linker to two BCY8928 (chain 2), triazole via D-Lys(PYA)
